# Experimental data from the RNAGym collection of RNA variant scans (doi:10.7554/elife.90254).
# B1: LINE1-full (parent)
# chain: UACGUAGGUGGUUUUCCCCUGAUAGUGCUAAGGGGGCCUGGAAGUUUGGACUGGGCAGAGCUCAACACAGCGUGGCAAAGUGGCUGUGGCUAGACUGCCUCUCUGGAUUCCUCGUCACUCAGCAGGGCAUCUCUGAGAGAAAUGCC
# Variants of: B1
# Experiment: self-cleavage, relative activity (ratio to wild type); higher = more cleavage; in vitro, sequencing; the parent is a self-cleaving ribozyme
row,Variant,self-cleavage
1,UACGUAGGUGGUUUUCCCCUGAUAGUGCAAAGGGGGCCUGGAAGUUUGGACUGGGCAGAGCUCAACACAGCGUGGCAAAGUGGCUGUGGCUAGACUGCCUCUCUGGAUUCCUCGUCACUCAGCGGGGCAUCUCUGAGAGAAAUGCC,0.91
2,UACGUAGGUGGUUUUCCCCAGAUAGUGCUAAGGGGGCCUGGAAGUUUGGACUGGGCAGAGCUCAACACAGCGUGGCAAAGUGGCUGUGGCUAGACUGCCUCUCUGGAUUCCUCGUCACUCAUCAGGGCAUCUCUGAGAGAAAUGCC,1.59
3,UACGUAGGUGGUUUUCCCCUGAUAGUGCUAAGGGGGCCUGGAAGUUUGGACGGGGCAGAGCUCAACACAGCGUGGCAAAGUGGCUGUGGCUAGACUGCCUCUCUGGACUCCUCGUCACUCAGCAGGGCAUCUCUGAGAGAAAUGCC,1.94
4,UACGUAGGUGGUUUUCCCCUGAUGGUGCUAUGGGGGCCUGGAAGUUUGGACUGGGCAGAGCUCAACACAGCGUGGCAAAGUGGCUGUGGCUAGACUGCCUCUCUGGAUUCCUCGUCACUCAGCAGGGCAUCUCUGAGAGAAAUGCC,1.37
5,UACGUAGGUGGUUUUCCCCUGAUAGUGCUAAGGGGGCCUGGAAGUUUGGACUGGGCAGAGCUCAACACAGCGUGGCAAAGUGGAUGUGGCUAGACUGCCUCUCUGGAUUCCUCGUCACUCAGCAGGGCAUCUCUGUGAGAAAUGCC,0.19
6,UACGUAGGUGGUUUUCCCCUGAUAGUGCUAAGGGGGCCUGUAAGUUUGGACUGGGCAGAGCUCAACACAGCGUGGCAAAGUGGCUGUGGCUAGACUGCCUCUCUGGAUUCCUCGUCACUCAGCAGGGCAUCUCUGAGAGAAACGCC,1.47
7,UACGUAGGCGGUUUUCCCCUGAUAGUGCUAAGGGGGCCUGGAAGUUUGGACUGGGCAGAGCUCAACACAGCGUGGCAAAGUGGCUAUGGCUAGACUGCCUCUCUGGAUUCCUCGUCACUCAGCAGGGCAUCUCUGAGAGAAAUGCC,0.16
8,UACGUAGGUGGUUUUCCCCUGAUAGUGCUAAGGGGGCCUGGAAGUUUGGACUGGGCAGAGCUCAUCACAGCGUGGCAAAGUGGCUGUGGCUAGACUGCCUCUCUGGAUUCCUCGUCACUCAGCAGGGCAUCUCUGAGAGAAAAGCC,0.06
9,UACGUGGGUGGUUUUCCCCUGAUAGUGCUAAGGGGGCCUGGAAGUUUGGACUGGGCAGAGCUCAACACAGCGUGGCAAAGUGGCUGUGGCUAGACUGCCUCUCUGGAUUCCUCGUCACUCAGCAGGGCAUCACUGAGAGAAAUGCC,1.04
10,UACGUAGGUGGUUUUCCCCUGAUAGUGCUAAGGGGGCCUGGAAGUUUGGACUGGGCAGAGCUCAACACAGCGUGGCAAAGUGGCUGUGGCUGGACUGCCUCUCUGGAUACCUCGUCACUCAGCAGGGCAUCUCUGAGAGAAAUGCC,0.08
11,UACGUAGGUGGUUUUCCCCUGAUAGUGCUAAGGGGGCCUGGAAGUUUGGACGGGGCAGAGCUCAACACAGCGUGGCAAAGUGGCUGUGGCUAGACUGCCUUUCUGGAUUCCUCGUCACUCAGCAGGGCAUCUCUGAGAGAAAUGCC,1.55
12,UACGUAGGUGGUUUUCCCCUGGUAGUGCUAAGGGGGCCUGGAAGUUUGGACGGGGCAGAGCUCAACACAGCGUGGCAAAGUGGCUGUGGCUAGACUGCCUCUCUGGAUUCCUCGUCACUCAGCAGGGCAUCUCUGAGAGAAAUGCC,0.92
13,UACGUAGGUGGCUUUCCCCUGAUUGUGCUAAGGGGGCCUGGAAGUUUGGACUGGGCAGAGCUCAACACAGCGUGGCAAAGUGGCUGUGGCUAGACUGCCUCUCUGGAUUCCUCGUCACUCAGCAGGGCAUCUCUGAGAGAAAUGCC,1.18
14,UACGUAGGUGGGUUUCCCCUGAUAGUGCUAAGGGGGCCUGGAAGUUUGGACUGGGCAGAGCUCAACACAGCGUGGCAAAGUGGCUGUGGCUAGACUGCCUCUCUGGAUUCCUCGUCACUCGGCAGGGCAUCUCUGAGAGAAAUGCC,1.4
15,UACGUAGGUGGUUUUCCCCUGAUAGUGCUAAGGGGGCCUGGAAGUUUGGACUGGGCAGAGCUCAACACAGCGUGGCAAAGGGGCUGUGGCUAGACUGCCUCUCUGGAUUCCUCGUCACUCAGCUGGGCAUCUCUGAGAGAAAUGCC,1.75
16,UACGUAGGUGGUUUUCCCCUGAUAGUGCUAAGGGGGCCUGGAAGUUUGGACAGGGCAGAGCUCAACACAGCGUGGCAAAGUGGCUGUGGCUAGACUGCCUCUCUGGACUCCUCGUCACUCAGCAGGGCAUCUCUGAGAGAAAUGCC,1.66
17,UACGUAGGUGGUUUUCCCCUGAUAGUGCUAAGGGGGCCUGGAAGUUUGGACUGGGCAGAGCUCGACACAGCGUGGCAAAGUGGCUGUGGCUAGACUGCCUCUCUGGAUUCCUCGUCACUCAGCAGGUCAUCUCUGAGAGAAAUGCC,0.21
18,UACGUAGGUGGUUUUCCCCUGAUAGUGCUAAGGGGGCCUGGAAGUUUGGACUGGGCAGAGCUCAACACAGCGUGGCAAAGUGGCUGUGGCUAGACUGCCUCUCUGGAUUCCUCUUCACUCAGCAGGGCAUCUCUGAGAGAUAUGCC,1.61
19,UACGUAGGUGGUUUUCCCCUGAUAGUGCUAAGGGGGCCUGGAAGUUUGGACUGGGCAGAGCUCAACACAGCGUGGCAAAGUGGCUGUGGCUAGACUGCCUCUCUGGAUUCCUUGUCACUCAGCAGGGCAUCUCUAAGAGAAAUGCC,1.18
20,UACGUAGGUGGUUUUCCCCUGAUAGUGCUAAGGGGGCCUGGAAGUUUGGACUGGGCAGUGCACAACACAGCGUGGCAAAGUGGCUGUGGCUAGACUGCCUCUCUGGAUUCCUCGUCACUCAGCAGGGCAUCUCUGAGAGAAAUGCC,0.05
